Experimental data from patent publication US20120184713A1, “Compositions and Methods for Modulation of Bone Density and Biomineralization” (priority 2011, published 2012).
Like-named read-outs stand apart in the source and are kept apart here.

Experiments:
FAM20C [1] = target: T1, FAM20C (Mus musculus, UniProt Q5MJS3); test: FAM20C in vitro kinase assay with dephosphorylated alpha-Casein as substrate; format: biochemical; conditions: 5 minute assays
T1 construct: His (from vector pcDNA3.1/V5-His B) (C); made in house; host or cells: HEK293T
T1 sequence (Q5MJS3 88-579): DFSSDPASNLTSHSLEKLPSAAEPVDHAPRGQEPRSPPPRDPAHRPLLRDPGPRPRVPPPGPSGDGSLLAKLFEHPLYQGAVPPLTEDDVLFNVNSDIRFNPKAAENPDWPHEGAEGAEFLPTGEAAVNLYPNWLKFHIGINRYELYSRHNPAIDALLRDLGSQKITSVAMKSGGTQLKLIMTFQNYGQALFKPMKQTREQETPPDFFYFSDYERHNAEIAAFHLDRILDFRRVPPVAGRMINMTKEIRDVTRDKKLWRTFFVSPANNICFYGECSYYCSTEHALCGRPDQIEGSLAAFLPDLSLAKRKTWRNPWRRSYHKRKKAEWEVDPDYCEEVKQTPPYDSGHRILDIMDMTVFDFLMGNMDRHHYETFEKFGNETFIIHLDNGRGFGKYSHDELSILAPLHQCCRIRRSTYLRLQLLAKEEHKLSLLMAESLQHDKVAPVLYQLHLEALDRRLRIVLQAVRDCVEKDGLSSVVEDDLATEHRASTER
Method: For FAM20C:V5 purification, pcDNA-FAM20C:V5 was transfected to HEK293T cells, and FAM20C:V5 was purified from conditioned media using anti-V5 agarose beads (Sigma). Condition media were incubated with anti-V5 affinity gel (Sigma) overnight at 4° C. Agarose beads were collected by centrifugation, and washed 5 times with TBS. Proteins were eluted using V5 peptides in TBS (Sigma, final concentration: 100 μg/ml). For purification of OPN:FLAG, BSP:FLAG, DMP1:FLAG, DSPP:FLAG and MEPE:FLAG, condition media were incubated with anti-FLAG M2 affinity gel (Sigma) overnight at 4° C. Agarose beads were collected by centrifugation, and washed 5 times with TBS. Purified quantification was performed on gels stained by SYPRO Ruby Protein Gel Stain (Invitrogen), using BSA as a standard.
FAM20C kinase assays were performed in 10 μl reactions, with 500 μM ATP, including 3 μCi (0.05 μM) of [gamma-^32P]ATP (6000 Ci/mmol, PerkinElmer), 50 mM Tris (pH 7.0), 10 mM MnCl2, 0.1% BSA, purified FAM20C:V5 (5 ng, […]), and dephosphorylated alpha-Casein (0.1 μg, Sigma). […] Radioactivity within the gels was detected using a Molecular Dynamics Phosphor Imager. For quantitation of gamma-^32P incorporation, bands were cut out of the gels using the Phosphor Imager pictures as a reference, and then counted by liquid scintillation using a Beckman Coulter LC6500. […]

[2] = tested on: Golgi apparatus casein kinase (G-CK); conditions: literature value (ref. 20), cited from earlier work
FAM20C [3] = target: T1, FAM20C; test: FAM20C kinase assay with peptide substrates (P81 phosphocellulose paper); format: biochemical; conditions: in vitro kinase reaction, FIG. 6
Method: FAM20C kinase assays were performed in 10 μl reactions, with 500 μM ATP, including 3 μCi (0.05 μM) of [gamma-^32P]ATP (6000 Ci/mmol, PerkinElmer), 50 mM Tris (pH 7.0), 10 mM MnCl2, 0.1% BSA, purified FAM20C:V5 (5 ng, […]), and dephosphorylated alpha-Casein (0.1 μg, Sigma). The kinase reaction was linear at 5 minutes, and the reaction rate was dependent on enzyme and substrate concentrations. Reactions were stopped by adding SDS sample buffer and boiling, and one half of the reaction volume was subjected to SDS-PAGE. Radioactivity within the gels was detected using a Molecular Dynamics Phosphor Imager. For quantitation of gamma-^32P incorporation, bands were cut out of the gels using the Phosphor Imager pictures as a reference, and then counted by liquid scintillation using a Beckman Coulter LC6500. Myelin Basic Protein (0.5 μg, NEB) and affinity-purified Fat2-3:FLAG (0.1 μg)^8 were used as control substrates. To determine pH-dependency, the pH in the reaction buffer was varied using Tris-HCl buffers. Synthesized peptides were designed from the sequence of human Osteopontin 115Asp to 132Leu, adding three basic amino acids (Arg-Lys-Arg) to its N-terminus to enable peptide binding to phosphocellulose paper (P81, Upstate). Peptides were purchased from Peptide2.0. Peptide1 ([…]; SEQ ID NO: 41), Peptide2 ([…]; SEQ ID NO: 42), Peptide3 ([…]; SEQ ID NO: 43), and Peptide4 ([…]; SEQ ID NO: 44).
(§1) FAM20C kinase assay with peptides substrates were performed in 10 μl reactions, with 500 μM ATP, including 3 μCi (0.05 μM) of [gamma-^32P]ATP (6000 Ci/mmol, PerkinElmer), 50 mM Tris (pH 7.0), 10 mM MnCl2, 0.1% BSA, purified FAM20C:V5 and peptides. Casein Kinase I (500 units, NEB) was used as a control kinase. mutant versions (5 ng, […]), and peptides (2.5 μg, 1 nmol as a standard condition. 250 ng, […] in FAM20C mutants). Reactions were stopped by adding 1.5 μl 0.1N—HCl, and one half of the reaction volume was pipetted on to P81 phospho-cellulose filter paper^27. The filter papers were washed with 0.5% phosphoric acid and subjected to liquid scintillation counting.

Casein Kinase I = target: T2, Casein Kinase I (Rattus norvegicus, UniProt Q06486); test: Casein Kinase I control kinase assay with peptide substrates; format: biochemical; conditions: in vitro kinase reaction, FIG. 6
T2 construct: purchased NEB
T2 sequence (Q06486 1-317 limits assumed): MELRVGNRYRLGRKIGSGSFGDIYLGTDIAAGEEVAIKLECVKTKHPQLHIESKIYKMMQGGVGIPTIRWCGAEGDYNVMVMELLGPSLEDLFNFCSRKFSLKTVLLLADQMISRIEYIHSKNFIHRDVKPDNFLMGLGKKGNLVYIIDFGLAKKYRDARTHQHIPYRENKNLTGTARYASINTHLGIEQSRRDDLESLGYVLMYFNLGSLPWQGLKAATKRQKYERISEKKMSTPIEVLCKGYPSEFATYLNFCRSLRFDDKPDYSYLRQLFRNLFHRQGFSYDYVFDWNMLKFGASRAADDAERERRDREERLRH
Method: as §1

| phosphorylation of peptide by FAM20C (FAM20C [3]) | phosphorylation of peptide by CKI (Casein Kinase I) | Compound | other results |
| --- | --- | --- | --- |
| still efficiently phosphorylated | reduced, but similar levels of activity | RKRDDAHQSDEAHHSDESDEL [OPN-ASARM^2S-A, derivative in which the other two Ser residues were changed to Ala] |  |
| phosphorylated much less effectively | reduced, but similar levels of activity | RKRDDSHQADESHHADEADEL [OPN-ASARM^3S-A, peptide in which only the three G-CK consensus sites were changed to Ala] |  |
| is a FAM20C substrate | phosphorylated | RKRDDSHQSDESHHSDESDEL [OPN-ASARM, amino acids 115-132 of human OPN with N-terminal Arg-Lys-Arg] |  |

The remaining lines, values behind:

| Compound | phosphorylation of peptide by FAM20C (FAM20C [3]) | phosphorylation of peptide by CKI (Casein Kinase I) | other results |
| --- | --- | --- | --- |
| Nc1ncnc2c1ncn2[C@@H]1O[C@H](COP(=O)(O)OP(=O)(O)OP(=O)(O)O)[C@@H](O)[C@H]1O [ATP] |  |  | Km (FAM20C [1]; FAM20C, dephosphorylated alpha casein as substrate, read-out: Km for ATP): 78 µM; Km ([2]; read-out: Km for ATP originally measured for G-CK): 80 µM |
| Casein |  |  | Km (FAM20C [1]; linear reaction conditions, average of several independent experiments, read-out: Michaelis constant (Km) of FAM20C for Casein): 1.5 µM; Km ([2]; read-out: Km for α-Casein for G-CK): 12 µM |
